Laboratory results: US20210395374A1

Tests used:
[1] = target: Cynomolgus CD3ε/δ (cynomolgus monkey) (UniProt Q95LI5); assay: kinetic binding analysis (ka/kd); method not stated
Human CD3ε/δ (human) = Human CD3ε/δ (human) (UniProt P07766); assay: as above
UniProt P07766, sequence (P07766 23-126, stated change not applied, chain 1 of 2): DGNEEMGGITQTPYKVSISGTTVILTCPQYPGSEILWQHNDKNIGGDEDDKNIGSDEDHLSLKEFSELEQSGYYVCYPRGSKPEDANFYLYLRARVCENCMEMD
UniProt P07766, sequence (P04234 22-105, stated change not applied, chain 2 of 2, further chain): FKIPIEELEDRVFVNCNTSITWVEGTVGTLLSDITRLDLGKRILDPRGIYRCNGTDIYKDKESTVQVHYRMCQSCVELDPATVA

UniProt Q95LI5, sequence (Q95LI5 22-117, stated change not applied, chain 1 of 2): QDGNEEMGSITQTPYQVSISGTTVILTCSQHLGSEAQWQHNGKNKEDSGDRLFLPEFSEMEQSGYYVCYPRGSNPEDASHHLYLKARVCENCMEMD
UniProt Q95LI5, sequence (Q95LI8 22-105, stated change not applied, chain 2 of 2, further chain): as the sequence (P04234 22-105, stated change not applied, chain 2 of 2, further chain) above, with I5V, N15K, I20V, S32T, D33N, I34N, T64A, S74N, V83L counted along it

B1: DART-A (sequence-optimized CD123×CD3 bispecific diabody) (bispecific antibody)
chain 1: QAVVTQEPSLTVSPGGTVTLTCRSSTGAVTTSNYANWVQQKPGQAPRGLIGGTNKRAPWTPARFSGSLLGGKAALTITGAQAEDEADYYCALWYSNLWVFGGGTKLTVLGGGGSGGGGEVQLVQSGAELKKPGASVKVSCKASGYTFTDYYMKWVRQAPGQGLEWIGDIIPSNGATFYNQKFKGRVTITVDKSTSTAYMELSSLRSEDTAVYYCARSHLLRASWFAYWGQGTLVTVSSGGCGGGEVAALEKEVAALEKEVAALEKEVAALEK
chain 2: DFVMTQSPDSLAVSLGERVTMSCKSSQSLLNSGNQKNYLTWYQQKPGQPPKLLIYWASTRESGVPDRFSGSGSGTDFTLTISSLQAEDVAVYYCQNDYSYPYTFGQGTKLEIKGGGSGGGGEVQLVESGGGLVQPGGSLRLSCAASGFTFSTYAMNWVRQAPGKGLEWVGRIRSKYNNYATYYADSVKDRFTISRDDSKNSLYLQMNSLKTEDTAVYYCVRHGNFGNSYVSWFAYWGQGTLVTVSSGGCGGGKVAALKEKVAALKEKVAALKEKVAALKE
A Kd [1] of 9.2 nM, a koff [1] of 0.005 s⁻¹ and a kon [1] of 550000 M⁻¹ s⁻¹ were found for B1 in this work. It also gave a Kd (Human CD3ε/δ (human)) of 9 nM, a koff (Human CD3ε/δ (human)) of 0.005 s⁻¹ and a kon (Human CD3ε/δ (human)) of 570000 M⁻¹ s⁻¹.
